Measured values reported in paper PMC7807036.

Assays:
thrombin (human) [1] = target: T1, thrombin (human) (UniProt P00734+P00734); test: AFM; conditions: Clotting: 20 mM Tris, 150 mM NaCl, 5 mM KCl, 1 mM MgCl2, 1 mM CaCl2, pH 7.4, 12 nM thrombin, 25 C, 5 min; AFM binding conditions not given in the material
thrombin (human) [2] = target: T1, thrombin (human); test: fibrinogen clotting (light scattering); conditions: Clotting: 20 mM Tris, 150 mM NaCl, 5 mM KCl, 1 mM MgCl2, 1 mM CaCl2, pH 7.4, 12 nM thrombin, 25 C, 5 min; AFM binding conditions not given in the material

origami nanostructure IV (9 TBA15 + 9 HD22, ~5.4 nm)
binding signal (% of origami with bound thrombin) (thrombin (human) [1]): 76

Aptarray (rectangular origami, 36 TBA15 + 36 HD22, 5.4 nm)
binding signal (% inhibition of thrombin) (thrombin (human) [2]): 98.3
